The values that follow come from US8318473B2, “Biofuel production” (Bio Architecture Lab, Inc., priority 2007, dated 2012).

A short description of experiment [1]: In vitro pyruvate formation from alginate with purified enzymes. The note with it: ~5 ug purified enzyme with Atu3025, UxuA, KdgK, KdgA; 1% alginate or ~0.5% mannuronate; over night; FIG. 6B, 6C.
Description: The reaction mixture contained 1% alginate or ˜0.5% mannuronate, ˜5 ug of purified Atu3026 (ADH12) or Atu3027 (ADH11), and ˜5 ug of purified oligoalginate lyase (Atu3025), UxuA, KdgK, and KdgA, 2 mM of ATP, and 0.6 mM of NADPH in 20 mM Tris-HCl pH7.0. The reaction was carried out over night and the pyruvate formation was monitored by the pyruvate assay kit (BioVision, Inc).
The nature of experiment [2]: TBA assay of culture media for secreted alginate lyase. As to conditions: media of overnight BL21 culture, LB+2% alginate+0.1 mM IPTG; 1:1 with 0.8% TBA, 10 min at 99 degrees Celsius; FIG. 47.
The conditions of experiment [3]: background statement, no test described; cited from earlier work.
The nature of experiment [4]: Kinetic testing of oxidation and reduction reactions on various substrates using 2ADH-16. Type of experiment: biochemical. The note with it: 0.04 mg/mL enzyme, 0.25 mg/mL cofactor, 20 mM Tris HCl pH 6.5(red) or 9.0(ox), 25 C; FIG. 35, 36. The procedure:
Similar to above, kinetic testing for both oxidation and reduction reactions was performed on various substrates using 2ADH-16. The conditions for these studies were as follows: 0.04 mg/mL enzyme, 0.25 mg/mL cofactor, 20 mM Tris HCl Buffer pH 6.5(red) or 9.0(ox), T=25 C, 100 uL total volume was used.

B1: Atu3026: alcohol dehydrogenase isolated from Agrobacterium tumefaciens C58, polypeptide SEQ ID NO: 92 (protein)
chain: MQRFTNRTIVVAGAGRDIGRACAIRFAQEGANVVLTYNGAAEGAATAVAEIEKLGRSALAIKADLTNAAEVEAAISAAADKFGEIHGLVHVAGGLIARKTIAEMDEAFWHQVLDVNLTSLFLTAKTALPKMAKGGAIVTFSSQAGRDGGGPGALAYATSKGAVMTFTRGLAKEVGPKIRVNAVCPGMISTTFHDTFTKPEVRERVAGATSLKREGSSEDVAGLVAFLASDDAAYVTGACYDINGGVLFS
modifications: Agrobacterium tumefaciens C58
As for B1, the “DEHU hydrogenase and mannuronate hydrogenase reactions in pyruvate formation from alginate” value in experiment [1] was “capable of catalyzing both DEHU hydrogenase and mannuronate hydrogenase reactions”.

B2: Vs24254: putative Vibrio splendidus protein similar to an alginate lyase, SEQ ID NO: 32; functional external alginate lyase (protein, listed as Vibrio splendidus)
chain: MNKPIFVVVLASLTYGCGGSSSSDSSDPSDTNNSGASYGVVAPYDIAKYQNILSSSDLQVSDPNGEEGNKTSEVKDGNFDGYVSDYFYADEETENLIFKMANYKMRSEVREGENFDINEAGVRRSLHAEISLPDIEHVMASSPADHDEVTVLQIHNKGTDESGTGYIPHPLLRVVWEQERDGLTGHYWAVMKNNAIDCSSAADSSDCYATSYNRYDLGEADLDNFTKFDLSVYENTLSIKVNDEVKVDEDITYWQHLLSYFKAGIYNQFENGEATAHFQALRYTTTQVNGSNDWDINDWKLTIPASKDTWYGSGGDSAAELEPERCESSKDLLANDSDVYDSDIGLSYFNTDEGRVHFRADMGYGTSTENSSYIRSELRELYQSSVQPDCSTSDEDTSWYLDDTRTNATSHELTASLRIEDYPNINNQDPKVVLGQIHGWKINQALVKLLWEGESKPVRVILNSDFERNNQDCNHCDPFSVELGTYSASEEWRYTIRANQDGIYLATHDLDGTNTVSHLIPWGQDYTDKDGDTVSLTSDWTSTDIAFYFKAGIYPQFKPDSDYAGEVFDVSFSSLRAEHN
B2: the “TBA assay result (cleavage of alginate polymer in growth medium)” value in experiment [2] is given as “positive TBA assay result of pink color”.

B3: BAL: benzaldehyde lyase (BAL) from Pseudomoas fluorescens, ThDP-dependent C—C ligase, SEQ ID NOS: 143-144 (protein, listed as Pseudomonas fluorescens)
chain: MAMITGGELVVRTLIKAGVEHLFGLHGAHIDTIFQACLDHDVPIIDTRHEAAAGHAAEGYARAGAKLGVAGHGGRGIYQCGHAHCQRLAGSQGRCIPHPGSGALRDDETNTLQAGIDQVAMAAPITKWAHRVMATEHIPRLVMQAIRAALSAPRGPVLLDLPWDILMNQIDEDSVIIPDLVLSAHGARPDPADLDQALALLRKAERPVIVLGSEASRTARKTALSAFVAATGVPVFADYEGLSMLSGLPDAMRGGLVQNLYSFAKADAAPDLVLMLGARFGLNTGHGSGQLIPHSAQVIQVDPDACELGRLQGIALGIVADVGGTIEALAQATAQDAAWPDRGDWCAKVTDLAQERYASIAAKSSSEHALHPFHASQVIAKHVDAGVTVVADGALTYLWLSEVMSRVKPGGFLCHGYLGSMGVGFGTALGAQVADLEAGRRTILVTGDGSVGYSIGEFDTLVRKQLPLIVIIMNNQSWGATLHFQQLAVGPNRVTGTRLENGSYHGVAAAFGADGYHVDSVESFSAALAQALAHNRPACINVAVALDPIPPEELILIGMDPFA
With B3, the “rate of benzoin formation from two benzaldehyde molecules” value in experiment [3] is listed as 320 μmol (benzoin) mg (protein)^−1 min^−1.

B4: Atu3027: alcohol dehydrogenase isolated from Agrobacterium tumefaciens C58, polypeptide SEQ ID NO: 90 (protein)
chain: MRSELPEGFFGPREWARLNAVADIIPGFPHTDFDTANGAEALAEADILLAAWGTPSLTRERLSRAPRLKMLAYAASSVRMVAPAEFWETSDILVTTAASAMAVPVAEFTYAAIIMCGKDVFRLRDEHRTERGTGVFGSRRGRSLPYLGNHARKVGIVGASRIGRLVMEMLARGTFEIAVYDPFLSAEEAASLGAKKAELDELLAWSDVVSLHAPILPETHHMIGARELALMADHAIFINTARGWLVDHDALLTEAISGRLRILIDTPEPEPLPTDSPFYDLPNVVLTPHIAGALGNELRALSDLAITEIERFVAGLAPLHPVHKQDMERMA
modifications: Agrobacterium tumefaciens C58
Turning to B4, the “DEHU hydrogenase and mannuronate hydrogenase reactions in pyruvate formation from alginate” value in experiment [1] was “capable of catalyzing both DEHU hydrogenase and mannuronate hydrogenase reactions”.

B5: Vs24259: putative Vibrio splendidus protein similar to an alginate lyase, SEQ ID NO: 34; negative control in TBA assay (protein, listed as Vibrio splendidus)
chain: MKQITLKTLLASSILLAVGCASTSTPTADFPNNKETGEALLTPVAVSASSHDGNGPDRLVDQDLTTRWSSAGDGEWATLDYGSVQEFDAVQASFSKGNQRQSKFDIQVSVDGESWTTVLENQLSSGKAIGLERFQFEPVVQARYVRYVGHGNTKNGWNSVTGLAAVNCSINACPASHIITSDVVAAEAVIIAEMKAAEKARKDARKDLRSGNFGVAAVYPCETTVECDTRSALPVPTGLPATPVAGNSPSENFDMTHWYLSQPFDHDKNGKPDDVSEWNLANGYQHPEIFYTADDGGLVFKAYVKGVRTSKNTKYARTELREMMRRGDQSISTKGVNKNNWVFSSAPESDLESAAGIDGVLEATLKIDHATTTGNANEVGRFIIGQIHDQNDEPIRLYYRKLPNQETGAVYFAHESQDATKEDFYPLVGDMTAEVGDDGIALGEVFSYRIDVKGNTMTVTLIREGKDDVVQVVDMSNSGYDAGGKYMYFKAGVYNQNISGDLDDYSQATFYQLDVSHDQYKK
For the molecule B5, the “TBA assay result (cleavage of alginate polymer in growth medium)” value in experiment [2] is on record as “little or no cleavage of the alginate polymer has occurred”.

B6: 2ADH-16: secondary alcohol dehydrogenase isolated from Klebsiella pneumoniae subsp. pneumoniae MGH 78578, SEQ ID NO: 138 (protein)
chain: MTAFHNKSVLVLGGSRGIGAAIVRRFVADGASVVFSYSGSPEAAERLAAETGSTAVQADSADRDAVISLVRDSGPLDVLVVNAGIALFGDALEQDSDAIDRLFHINIHAPYHASVEAARRMPEGGRIIVIGSVNGDRMPLPGMAAYALSKSALQGLARGLARDFGPRGITVNVVQPGPIDTDANPENGPMKELMHSFMAIKRHGRPEEVAGMVAWLAGPEASFVTGAMHTIDGAFGA
modifications: Klebsiella pneumoniae subsp. pneumoniae MGH78578
With B6, in experiment [4], the “oxidation and reduction of various substrates” value is “capable of catalyzing both the oxidation and reduction of a wide variety of substrates”.
